T1: hsGLUT4 L61A (human, UniProt P14672 1-509)
T1 sequence: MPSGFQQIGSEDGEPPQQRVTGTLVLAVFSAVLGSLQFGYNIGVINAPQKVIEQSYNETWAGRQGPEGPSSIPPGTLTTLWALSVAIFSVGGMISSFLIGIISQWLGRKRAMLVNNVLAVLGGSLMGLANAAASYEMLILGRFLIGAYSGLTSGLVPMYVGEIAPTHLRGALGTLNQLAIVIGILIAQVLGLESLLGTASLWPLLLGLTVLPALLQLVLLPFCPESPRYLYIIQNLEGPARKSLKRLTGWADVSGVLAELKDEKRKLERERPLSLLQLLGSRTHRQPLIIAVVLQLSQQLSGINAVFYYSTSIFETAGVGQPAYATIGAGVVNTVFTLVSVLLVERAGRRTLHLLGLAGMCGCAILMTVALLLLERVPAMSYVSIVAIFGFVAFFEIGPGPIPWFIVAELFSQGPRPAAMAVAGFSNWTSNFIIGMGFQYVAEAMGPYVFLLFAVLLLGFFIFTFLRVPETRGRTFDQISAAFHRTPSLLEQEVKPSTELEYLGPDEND

T2: hsGLUT4 P66A (human, UniProt P14672 1-509)
T2 sequence: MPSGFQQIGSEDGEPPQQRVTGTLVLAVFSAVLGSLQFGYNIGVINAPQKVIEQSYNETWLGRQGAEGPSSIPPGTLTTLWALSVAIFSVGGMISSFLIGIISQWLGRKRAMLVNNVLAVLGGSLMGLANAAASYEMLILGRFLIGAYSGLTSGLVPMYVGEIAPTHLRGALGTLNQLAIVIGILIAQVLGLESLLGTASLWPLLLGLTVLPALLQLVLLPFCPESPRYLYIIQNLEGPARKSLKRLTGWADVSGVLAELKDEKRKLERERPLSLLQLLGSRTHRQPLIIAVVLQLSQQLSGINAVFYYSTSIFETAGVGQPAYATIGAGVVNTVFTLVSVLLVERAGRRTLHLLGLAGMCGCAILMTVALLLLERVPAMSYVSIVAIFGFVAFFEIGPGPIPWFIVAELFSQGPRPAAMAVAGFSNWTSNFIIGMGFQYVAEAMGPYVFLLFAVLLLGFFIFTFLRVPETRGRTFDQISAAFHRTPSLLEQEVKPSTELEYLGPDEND

T3: hsGLUT4 S310A (human, UniProt P14672 1-509)
T3 sequence: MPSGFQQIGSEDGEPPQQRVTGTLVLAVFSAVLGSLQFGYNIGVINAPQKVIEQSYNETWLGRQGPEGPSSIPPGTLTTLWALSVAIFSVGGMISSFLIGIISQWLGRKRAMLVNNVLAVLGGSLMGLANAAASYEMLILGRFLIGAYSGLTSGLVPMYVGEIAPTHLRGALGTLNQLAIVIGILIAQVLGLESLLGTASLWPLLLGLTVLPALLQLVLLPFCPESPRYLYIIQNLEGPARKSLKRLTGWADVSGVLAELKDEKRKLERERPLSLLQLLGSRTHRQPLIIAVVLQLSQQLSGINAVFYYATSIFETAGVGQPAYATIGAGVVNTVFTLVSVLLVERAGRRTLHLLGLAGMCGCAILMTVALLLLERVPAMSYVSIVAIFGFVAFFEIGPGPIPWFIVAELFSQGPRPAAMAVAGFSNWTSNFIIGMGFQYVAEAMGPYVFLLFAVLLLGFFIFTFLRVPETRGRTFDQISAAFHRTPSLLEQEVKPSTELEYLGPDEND

T4: hsGLUT4 R416A (human, UniProt P14672 1-509)
T4 sequence: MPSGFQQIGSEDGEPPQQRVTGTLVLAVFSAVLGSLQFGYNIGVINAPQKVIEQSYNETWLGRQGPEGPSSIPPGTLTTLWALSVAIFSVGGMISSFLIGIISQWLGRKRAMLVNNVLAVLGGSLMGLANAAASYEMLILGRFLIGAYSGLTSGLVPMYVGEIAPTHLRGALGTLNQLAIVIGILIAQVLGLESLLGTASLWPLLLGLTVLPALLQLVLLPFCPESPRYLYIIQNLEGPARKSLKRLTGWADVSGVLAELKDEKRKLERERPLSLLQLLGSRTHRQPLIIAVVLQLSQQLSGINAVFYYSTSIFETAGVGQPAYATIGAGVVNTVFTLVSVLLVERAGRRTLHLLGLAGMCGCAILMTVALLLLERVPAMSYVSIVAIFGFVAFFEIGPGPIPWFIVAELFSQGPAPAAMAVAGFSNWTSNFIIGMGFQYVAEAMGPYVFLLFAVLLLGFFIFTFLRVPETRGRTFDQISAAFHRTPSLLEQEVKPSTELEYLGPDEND


What was measured:
Experiment in all cases: flow cytometry, alanine-scan library in HEK-293T
hsGLUT4 L61A = molecular target: T1, hsGLUT4 L61A
How it was run: (§1)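 HEK-293T cells expressing individual GLUT4 alanine mutants were stained 48 h post-transfection with anti-GLUT4 scFv MAbs (2 μg/ml), then biotinylated secondary and streptavidin-PerCP, and read by high-throughput flow cytometry. Where used, cytochalasin B (10 uM final) was given for 30 min before and during primary antibody staining.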

hsGLUT4 P66A = molecular target: T2, hsGLUT4 P66A
How it was run: as §1

hsGLUT4 S310A = molecular target: T3, hsGLUT4 S310A
How it was run: as §1

hsGLUT4 R416A = molecular target: T4, hsGLUT4 R416A
How it was run: as §1

Molecule	% of binding to wild type GLUT4 (hsGLUT4 L61A) [%]	% of binding to wild type GLUT4 (hsGLUT4 P66A) [%]	% of binding to wild type GLUT4 (hsGLUT4 S310A) [%]	% of binding to wild type GLUT4 (hsGLUT4 R416A) [%]
1F8 (antibody)	90	78	93	73
AB101 (scFv, Chicken-derived clone used as a control; the four lead clones were tested as scFv-human IgG1 Fc; also called MAb AB101) scFv: ALTQPSSVSANPGETVKITCSGSSNSYGWYQQKSPGSAPVTVIYYNDKRPSDIPSRFSGSKSDSTHTLTITGVRAEDEAVYFCGSYDSTYVGIFGAGTTLTVLGQSSRSSGGGGSSGGGGSAVTLDESGGGLQTPGGTLSLVCKASGFTFSSNAMGWVRQAPGKGLEWVAGISSDGRYTKYGSAVKGRATISRDNGQSTVRLQLNNLRAEDTGTYFCAKAFGNNYRRIYAGQIDAWGHGTEVIVSS	115	91	101	69
AB111 (Fc fusion, Bivalent scFv-Fc; also called MAb AB111; not shown: Fc fragment of human IgG1, cloned in frame with the scFv) scFv: ALTQPSSVSANPGETVKITCSGSGSWYGWFQQKSPGSAPVTVIYSNDKRPSDIPSRFSGSKSGSTSTLTITGVQVEDEAVYYCGNWDIFGAGTTLTVLGQSSRSSGGGGSSGGGGSAVTLDESGGGLQTPGGALSLVCKASGFTFSSHGMGWVRQAPGKGLEWVASISTGRYTFYAPAVKGRATISRDNGQSTVRLQLNNLRAEDTATYYCTKCAGLNGCGGGEIDAWGHGTEVIVSS	80	90	130	157
AB108 (Fc fusion, Bivalent scFv-Fc; also called MAb AB108; not shown: Fc fragment of human IgG1, cloned in frame with the scFv) scFv: ALTQPSSVSANLGGTVKITCSGSSGSYGWYQQKAPGSAPVTLIYRNDKRPSDIPSRFSGSESGSTGTLTITGVQAEDEAVYFCGGYDSSAGYAAFGAGTTLTVLGQSSRSSGGGGSSGGGGSAVTLDESGGGLQTPGGALSLVCKASGFTFSSHGMGWVRQAPGKGLEWVGSISTGRYTFYAPAVKGRATISRDNGQSTLRLQLNNLRAEDTGTYYCTKCAGLNGCGGGEIDAWGHGTEVIVSS	13	11	97	67
